Measured values as given in patent US20120322975A1.

Columns and labels:
[1] = molecular target: dog factor D (in dog serum) (dog); assay: cell-based or functional assay; conditions: scale: times less effective than on human factor D
[2] = molecular target: human factor D (purified from human serum) (human) (UniProt P00746); assay: cell-based or functional assay
Chain of UniProt P00746 (P00746 26-253 N180D): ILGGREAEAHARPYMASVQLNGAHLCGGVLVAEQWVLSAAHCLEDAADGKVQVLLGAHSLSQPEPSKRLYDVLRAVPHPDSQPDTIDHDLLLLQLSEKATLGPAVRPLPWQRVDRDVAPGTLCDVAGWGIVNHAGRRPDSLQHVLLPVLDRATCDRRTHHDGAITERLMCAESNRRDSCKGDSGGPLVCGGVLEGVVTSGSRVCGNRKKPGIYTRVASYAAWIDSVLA

MAb 166-32 (antibody)
neutralization of dog factor D in hemolytic assays, compared to human factor D [1]: > 10
alternative pathway hemolytic activity of plasma from extracorporeal circuits (18 µg/ml antibody in human whole blood) (molar ratio (MAb:factor D)) [2]: 1.5
inhibition of factor D dependent alternative pathway hemolysis of unsensitized rabbit RBCs (factor D depleted serum with supplemented factor D) [2]: 0.3 µg/mL
